Test results from patent US20240190940A1 (published 2024).

B1: TCR 3795, cysteine-substituted, LVL-modified chimeric TCR (human variable regions, murine constant regions) (TCR)
TCR alpha: AQKVTQAQTEISVVEKEDVTLDCVYETRDTTYYLFWYKQPPSGELVFLIRRNSFDEQNEISGRYSWNFQKSTSSFNFTITASQVVDSAVYFCALSESHNNAGNMLTFGGGTRLMVKPNIQNPEPAVYQLKDPRSQDSTLCLFTDFDSQINVPKTMESGTFITDKCVLDMKAMDSKSNGAIAWSNQTSFTCQDIFKETNATYPSSDVPCDATLTEKSFETDMNLNFQNLLVIVLRILLLKVAGFNLLMTLRLWSS
TCR beta: NAGVTQTPKFQVLKTGQSMTLQCAQDMNHNSMYWYRQDPGMGLRLIYYSASEGTTDKGEVPNGYNVSRLNKREFSLRLESAAPSQTSVYFCAASQNTEAFFGQGTRLTVVEDLRNVTPPKVSLFEPSKAEIANKQKATLVCLARGFFPDHVELSWWVNGKEVHSGVCTDPQAYKESNYSYCLSSRLRVSATFWHNPRNHFRCQVQFHGLSEEDKWPEGSPKPVTQNISAEAWGRADCGITSASYQQGVLSATILYEILLGKATLYAVLVSTLVVMAMVKRKNS
B2: 3795 (TCR, V domains shown)
Valpha: AQKVTQAQTEISVVEKEDVTLDCVYETRDTTYYLFWYKQPPSGELVFLIRRNSFDEQNEISGRYSWNFQKSTSSFNFTITASQVVDSAVYFCALSESHNNAGNMLTFGGGTRLMVKP
Vbeta: NAGVTQTPKFQVLKTGQSMTLQCAQDMNHNSMYWYRQDPGMGLRLIYYSASEGTTDKGEVPNGYNVSRLNKREFSLRLESAAPSQTSVYFCAASQNTEAFFGQGTRLTVV

Key:
[1] = molecular target: Q61K RAS 10-mer peptide … presented by HLA-A*01:01 on cells (human); test: cell-based or functional assay
[2] = molecular target: T1, NRAS Q61K peptide on HLA-B*27:01 (human); test: cytokine release
T1 peptide: ILDTAGKEEY

[3] = molecular target: T2, NRAS Q61K peptide on HLA-C*07:01 (human); test: cytokine release
T2 peptide: ILDTAGKEEY

[4] = molecular target: T3, NRAS Q61R peptide on HLA-A*01:01 (human); test: cytokine release
T3 peptide: ILDTAGREEY

[5] = molecular target: T4, NRAS Q61K peptide on HLA-A*02:01 (human); test: cytokine release
T4 peptide: ILDTAGKEEY

[6] = molecular target: T5, NRAS Q61K peptide on HLA-B*08:01 (human); test: cytokine release
T5 peptide: ILDTAGKEEY

[7] = molecular target: T6, NRAS Q61K (Q61K RAS; same sequence in KRAS and HRAS Q61K) peptide on HLA-A*01:01 (human); test: multimer staining
T6 peptide: ILDTAGKEEY

Binder	4-1BB upregulation by TCR-transduced CD8+ effector cells (flow cytometry), autologous DC pulsed with various peptide concentrations [1] [µg/ml]	binding result [2]	binding result [3]	binding result [4]	binding result [5]	binding result [6]	binding result [7]
B1	> 0.01						
B2		no recognition	no recognition	no recognition	no recognition	no recognition	recognises
